The RNAGym collection of RNA variant scans (doi:10.1073/pnas.2313332121)

B1: TPR t1 (parent)
chain: GACCAAUCUGCCCUCAGAGCUCGAGAACAUCUUCGGAUGCAGAGGAGGCAGGCUUCGGUGGCGCGAUAGCGCCAACGUCCUCAACCUCCAAUGCAUCCCACCACAUGAUGAUGCCUGAAGAGCCUUGGUUUUUUG

Variants of: B1
Test: polymerase ribozyme fitness, log enrichment relative to wild type (log ratio); higher = more active; in vitro selection for triplet polymerase activity
In short: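 For each subunit of a heterodimeric triplet polymerase ribozyme, a mutant library was built by PCR and transcribed, then taken through a single in vitro selection round in triplicate. Selection involved annealing to a biotinylated primer, the partner subunit and triplets, incubation frozen at −7 °C, gel excision of extended constructs, capture on streptavidin beads and RT-PCR. Genotypes were retained after Illumina sequencing of inputs and outputs only with ≥10 input reads and ≥1 read in each output. Fitness is defined as the logarithm of a genotype's enrichment relative to wild-type enrichment, using inverse-variance-weighted averages across replicates, with the logarithm taken to base 2.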

| Variant | polymerase ribozyme fitness (log ratio) |
| --- | --- |
| GACCAAUCUGCCCUCAGAGCUCGAGAACAUCUUCGGAUGCAGAAGAGGCAGGCUUCGGUGGCGCGAUAGUGCCAACGUCCUCAACCUCCAAUGCAUCCCACCACAUGAUGAUGCCUGAAGAGCCUUGGUUUUUUG [G44A C70U] | -1.67 |
| GACCAAUCUGCCCUCAGAGCUCGAGAACAUCUUCGGAUGCAGAAGAGGCAGGCUUCGGUUGCGCGAUAGCGCCAACGUCCUCAACCUCCAAUGCAUCCCACCACAUGAUGAUGCCUGAAGAGCCUUGGUUUUUUG [G44A G60U] | -0.542 |
| GACCAAUCUGCCCUCAGAGCUCGAGAACAUCUUCGGAUGCAGAAGAGGCAGGCUUCGGUGGCGCGAUAGCGCCAACGUCCUCAACCGCCAAUGCAUCCCACCACAUGAUGAUGCCUGAAGAGCCUUGGGUUUUUG [G44A U87G U129G] | -1.42 |
| GACCAAUCUGCCCUCAGAGCUCGAGAACAUCUUCGGAUGCAGAAGAGCCAGGCUUCGGUGGCGCGAUAGCGCCUACGUCCUCAACCUCCAAUGCAUCCCACCACAUGAUGAUGCCUGAAGAGCCUUGGUUUUUUG [G44A G48C A74U] | -2.22 |
| GACCAAUCUGCCCUCAGAGCUCGAGAACAUCUUCGGAUGCAGAAGAGGCAGGCUUCGGUGGCGCGAUAGCGCCAACCUCCUCAACCUCCAAUGCAUCCCACCACAUGAUGAUGCCUGAAGAGCCUUGGUUUUUUG [G44A G77C] | -0.688 |
| GACCAAUCUGCCCUCAGAGCUCGAGAACAUCUUCGGAUGCAGAAGAGGCAGGCUUUGGUGGCGCGAUAGCGUCAACGUCCUCAACCUCCAAUGCAUCCCACCACAUGAUGAUGCCUGAAGAGCCUUGGUUUUUUG [G44A C56U C72U] | -2.35 |
| GACCAAUCUGCCCUCAGAGCUCGAGAACAUCUUCGGAUGCAGAAGAGGCAGGCUUCGGUGGCGCGAUAGCGCCAACGUCCUCAACCUCCAAUGCAGCCCACCACAUGAUGAUGCCAGAAGAGCCUUGGUUUUUUG [G44A U96G U116A] | -5.13 |
| GACCAAUCUGCCCUCAGAGCUCGAGAACAUCUUCGGAUGCAGAAGAGGCAGGCUUCGGUGGCGCGAUAGCGCCAAAGUCCUCAACCUCCAAUGCAUCCCACCACAUGAUGAUGCCUGAAGAGGCUUGGUUUUUUG [G44A C76A C123G] | 0.122 |
| GACCAAUCUGCCCUCAGAGCUCGAGAACAUCUUCGGAUGCAGAAGAGGCAGGCUUCGGUAGCGCGAUAGCGCCAACGUCCUCAACCUCGAAUGCAUCCCAACAUAUGAUGAUGCCUGAAGAGCCUUGGUUUUUUG [G44A G60A C89G C101A C104U] | -2.79 |
| GACCAAUCUGCCCUCAGAGCUCGAGAACAUCUUCGGAUGCAGAAGAGGCAGGCUUCGGUGGCGCGAUAACGCCAACGUCCUCAACCUCAAAUGCAUCCCACCACAUGAUGAUGCCUGAAGAGCGUUGGUUUUUUG [G44A G69A C89A C124G] | -3.8 |
| GACCAAUCUGCCCUCAGAGCUCGAGAACAUCUUCGGAUGCAGAAGAGGCAGGCUUCGGUGGCGCGAUAGCGCCAACGUCCUCAACCUCCAAUGCAUCCCACCACGUGAUGAUGCCUGAAGAGCCUUGGUUUUUUG [G44A A105G] | -4.47 |
| GACCAAUCUGCCCUCAGAGCUCGAGAACAUCUUCGGAUGCAGAAGAGGCUGGCUUCGGUUGCGCGAUAGCGCCAACGUCCUCAACCUCCAAUGCAUCCCACCACAUGAUGAUGCCUGAAGAGCCUUGGUUUCUUG [G44A A50U G60U U132C] | -2.38 |
| GACCAAUCUGCCCUCAGAGCUCGAGAACAUCUUCGGAUGCAGAAGAGGCAGGCUUAGGUGGCGCGAUAGCGCCAACGUCCUCAACCUCCAAUGCAUCCCACCACAUGAUGAUGCCUGAAGAGCCUUGGUUUUUUG [G44A C56A] | -1.33 |
| GACCAAUCUGCCCUCAGAGCUCGAGAACAUCUUCGGAUGCAGAAGAGGCAGGCUUUGGUGGCGCGAUAGCGCCAACGUCCUCAACCUCCAAUGCAUCCCACCACAUGAUGAUGCCUGAAGAGCCUUGGUUUUUUG [G44A C56U] | -0.878 |
| GACCAAUCUGCCCUCAGAGCUCGAGAACAUCUUCGGAUGCAGAAUAGGCAGGCUUCGGUGGCGCGAUAGCGCCAACAUCCUCAACCUCCAAUGCAUCCCACCACAUGAUGAUGCCUGAAGAGCCUUGGCUUUUUG [G44A G45U G77A U129C] | -3.02 |
| GACCAAUCUGCCCUCAGAGCUCGAGAACAUCUUCGGAUGCAGAAGAGGCAGGCUUCGGUGGCGCGAUAGCGACAACGCCCUCAACCUCCAAUGCAUCCCACCACAUGAUGAUGCCUGAGGAGCCUUGGUUUUUUG [G44A C72A U78C A119G] | 0.491 |
| GACCAAUCUGCCCUCAGAGCUCGAGAACAUCUUCGGAUGCAGAAGAGGCAGGCUUCGGUGGCGCGAUAGUGCCAACGUCCUCAACCUCCAAUGCAUCCCACCUCAUGAUGAUGCCUUAAGAGCCUUGGUUUUUUG [G44A C70U A103U G117U] | -5.43 |
| GACCAAUCUGCCCUCAGAGCUCGAGAACAUCUUCGGAUGCAGAAGAGGCAGGCUUCGGUGGCGCGAUAGCGCCAACGUCCUCAACCUCGAAUGCAUCCCACCACAUGAUGAUGCAUGAAGAGCAUUGGAUUUUUG [G44A C89G C115A C124A U129A] | -1.46 |
| GACCAAUCUGCCCUCAGAGCUCGAGAACAUCUUCGGAUGCAGAAGAGGUAGGCGUCGGUGGCGCGAUAGAGCCAACGUCCUCAACCUCCAAUGCAUCCCACCACAUGAUGAGGCCUGAAGAGCCUUGGUUUUUUG [G44A C49U U54G C70A U112G] | -6.09 |
| GACCAAUCUGCCCUCAGAGCUCGAGAACAUCUUCGGAUGCAGAAGAGGCAGGCUUCGGUGGCACGAUAGCGCCAACGUCCUCAUCCUCCAAUGCAUCCCACCACAUGAUGAUGCCUGAAGAGCCUUGGUUUUUUG [G44A G63A A84U] | -2.6 |
| GACCAAUCUGCCCUCAGAGCUCGAGAACAUCUUCGGAUGCAGAAGAGGCAGGCUUCGGUGGCGCGAUAGCGCCAACGUCCUCAACCUCAAAUGCAUCCCACCACAUGAUGAUGCCUGAAGAGCCUUGGUUUUUUG [G44A C89A] | -1.04 |

| Variant | polymerase ribozyme fitness (log ratio) |
| --- | --- |
| GACCAAUCUGCCCUCAGAGCUCGAGAACAUCUUCGGAUGCAGAAGAGGCAGUCUUCGGUGGCGCGAUAGCGCCAACGUCCUCAACCACCAAUGCAUCCCACCACAUGAUGAUGCCUGAAGAGCCUUGGUUUUUUG [G44A G52U U87A] | -2.35 |
| GACCAAUCUGCCCUCAGAGCUCGAGAACAUCUUCGGAUGCAGAAGAGGCAGGCUUCGGUGGCGCGAUGGCGCCAACGUCCUCAACCUCCAAUGCAUCCCACCACAUGAUGAAGCCUGAAGAGCCUUGGUUUUUUG [G44A A68G U112A] | -3.21 |
| GACCAAUCUGCCCUCAGAGCUCGAGAACAUCUUCGGAUGCAGAAGAGGCAGGCUUCGGUGGCGCGAUAGCGCCAACGUCCUCAACCUCCAAUGCAUCCCACCACAUGAUAAUGCCUGAAGAGCCUUGGUUUUUUG [G44A G110A] | -2.08 |
| GACCAAUCUGCCCUCAGAGCUCGAGAACAUCUUCGGAUGCAGACGUGGCAGGCUUCGGUGGCGCGAUAGCGCCAACGUCCUCAACUUCCAAUGCAUCCCACCACAUGAUGAUGCCUGAAGAGCCUUGGUUUUUUG [G44C A46U C86U] | -2.43 |
| GACCAAUCUGCCCUCAGAGCUCGAGAACAUCUUCGGAUGCAGAAGAGGCAGGCUUCGGUGGCGCGAUAGAGCCAACGUCCUCAACCUCAAAUGCAUCCCACCACAUGAUGAUGCCUGAAGAGCCUUGGUUUUUUG [G44A C70A C89A] | -4.72 |
| GACCAAUCUGCCCUCAGAGCUCGAGAACAUCUUCGGAUGCAGAAGAGGCAGGCUUCGGUAGCGCGAUAGCGCCUACGUCCUCAACCUCCAAUGCAUCCCACCACAUGAUGAUGCCUGAAGAGCCUUGGUUUUUUG [G44A G60A A74U] | -0.926 |
| GACCAAUCUGCCCUCAGAGCUCGAGAACAUCUUCGGAUGCAGAAGAGGCAGGCUUCGGUGGCGCGAUAGCGCCAACGUCCUCAACCUCCAAUGCAUCCCACCACAUGAUGAUGCCUGAGGAGACUUGGUUUUUUG [G44A A119G C123A] | 0.608 |
| GACCAAUCUGCCCUCAGAGCUCGAGAACAUCUUCGGAUGCAGAAGAGGCAGGCUUCGGUGGCGCGAUAGCGCCAACGUCCUCAACCUCCAAUGCAUCCCCCCACAUGAUAAUGCCUGAAGAGCCUUGGUUUUUUG [G44A A100C G110A] | -4.23 |
| GACCAAUCUGCCCUCAGAGCUCGAGAACAUCUUCGGAUGCAGAAGAGGCAGGCUUCGGUGGCGCGAUAGCGCCAACGUCCUCAACCUCCAAUGCAUCCCACCAUAUGAUGAUGCCUGAAGAGCCUUGGUUUUUUG [G44A C104U] | -0.855 |
| GACCAAUCUGCCCUCAGAGCUCGAGAACAUCUUCGGAUGCAGAAGAGGCAGGCUUCGGUGGCGCGAUAGCGCCAACGUCCUCAACCUACAAUGCAUCCCACCACAUGAUGAUGCCUGAAGAGCCUUGGUUUUUUG [G44A C88A] | -1.02 |
| GACCAAUCUGCCCUCAGAGCUCGAGAACAUCUUCGGAUGCAGAAGAGGCAGGCUUCGGUGGCGCGAUAGCGCCAACGUCCUCAACCUCCAAUGCAUCCCACUACAUGAUGAUGCCUGAAGAGCCUUGGUUUUUUG [G44A C102U] | -4.04 |
| GACCAAUCUGCCCUCAGAGCUCGAGAACAUCUUCGGAUGCAGACGAGGCAGGCUUCGGUGGCGCGAUAGCGCCAACGUCCUCUACCUCCAAUGCAUCCCACCACAUGAUGAUGCCUGAAGAGCCUUGGUUUUUUG [G44C A83U] | -0.396 |
| GACCAAUCUGCCCUCAGAGCUCGAGAACAUCUUCGGAUGCAGAAGAGGCAGGCUUCGGUAGCGCGAUAGCGCCAACGUCCUCAACCUCCAAUGCAUCCCACCACAGGAUGAAGCCUGAAGAGCCUUGGUUUUUUG [G44A G60A U106G U112A] | -1.83 |
| GACCAAUCUGCCCUCAGAGCUCGAGAACAUCUUCGGAUGCAGAAGAGGCAGGCUUCGGUGGCGCGAUACCGCCAACGUCCUCAACCUCCAAUGCAUCCCACAACAUGAUGAUGCCUGAAGAACCUUGGUUUUUUG [G44A G69C C102A G122A] | -5.57 |
| GACCAAUCUGCCCUCAGAGCUCGAGAACAUCUUCGGAUGCAGAAGAGGCAGGCUUCGGUGGCGCGAUAGCGCCAACGUCCUCAACCUCCGAUGCAUCCCACCAUAUGAUGAUGCCUGAAGAGCCUUGGUUUUUUG [G44A A90G C104U] | -0.158 |
| GACCAAUCUGCCCUCAGAGCUCGAGAACAUCUUCGGAUGCAGAAGAGGCAGGCUUCGGUGGCGCGAUAGCGCCAACGUCAUCAACCUCCAAUGCAUCCCACCACAUGAUGAUGCCUGAAGAGCCUUGGUUUUUUG [G44A C80A] | -3.93 |
| GACCAAUCUGCCCUCAGAGCUCGAGAACAUCUUCGGAUGCAGAAGAGGCAGGCUUCGGUGGCGCGAUAGCACAAACGUCCUCAACCUCCAAUGCAUCCCACCACAUGAUGAUGCCUGAAGAGCCUUGGUUUUUUG [G44A G71A C73A] | -2.85 |
| GACCAAUCUGCCCUCAGAGCUCGAGAACAUCUUCGGAUGCAGAAGAGGUAGGCUUCGGUGGCGCGAUAGCGCCAACGGCCUCAACCUCCAAUGCAUCCCAACACAUGAUGAUGCCUGAAGAGCCUUGGUUUUUUG [G44A C49U U78G C101A] | -3.78 |
| GACCAAUCUGCCCUCAGAGCUCGAGAACAUCUUCGGAUGCAGAAGAGGCAGGCUUCGGUGGCGCGAUAGCGCCAACGUCCUCAACCUCCAAUGCAUCUCACCAUAUGAUGAUGCCCGAAGAGCCUUGGUUUUUUG [G44A C98U C104U U116C] | -4.16 |
| GACCAAUCUGCCCUCAGAGCUCGAGAACAUCUUCGGAUGCAGAAGAGUCAGGAUUCGGUUGCGCGAUAGCGCCAACGUCCUCAACCUCCAAUGCAUCCCACCACAUGAUGAUGCCUGAAGAGCCUUGGUUUUUUG [G44A G48U C53A G60U] | -1.14 |
| GACCAAUCUGCCCUCAGAGCUCGAGAACAUCUUCGGAUGCAGAAGAGGCAGGCUUCGGUGGCGCGAUAGCGCCAACCACCUCAACCUCCAAUACAUCCCACCACAUGAUGAUGCCUGAAGAGCCUUGGUUUUUUG [G44A G77C U78A G93A] | -1.9 |
